Measured values from the DeepSol protein solubility set.

test: soluble on expression in E. coli; label from the status in PepcDB or PDB records

Soluble on expression in E. coli, not soluble:
MGSDKIHHHHHHRPYTPDYEIVPEYTNADTWKAYEAFNEHLLDQNKFIYKSSTADKAAVDRWNGAAAIWCQPTYWDMAMNAYKRAKAEGDTQKEQKFKQLCDDLFAGNKAHYANFDFDDNNENTGWFIYDDIMWWTVTLARAYELFGVEEYLSLSEESFGRVWYGSEKVGDTGSYADPEKGLGGGMFWQWQPIKNPNPNEADHGKMACINFPTVVAALTLYNNVPTGRTESTDSHPSYQTKEQYLAKGKEIYAWAVENLVDVTTGQVADSRHGNGNPAWKDHVYNQASYIGASVLLYKATGEKQYLDNAVMAADYTMNTISGTFDLLPFETGAEQGIYTAVFAQYIAMLVYDCDQTQYIPFVKRNINYGWANRDKTRDICGGDYTKLQVEGDAVESYSASGIPALMLLFPTDK
LNHETITKRTLLSSLMETNSLNYPNQVKLSERLAELYGASFGIGVSKKGNQHWFNISMNIVNDHYLQDSQVLAEAVDFLKEIIFAPNIQAGQFEAETFQREKENLKAYLESIVED
MTTKLQKRVNDLDEDIPRPPFSSHSDKTEDKEGVSEACPVCEKTVQNPCVLETGYVACYPCAISYLVNNEGHCPVTNKKLLGCTYNKHTNKWEVVTGIRKLLI
MKLEDLPKYYSPKSPGLTDASASTSKDALSITDVMAAQGMTQNRAEMGFSAFLGKMGISMNDRARATELLADYALSRCDRVAALRKLPAEIKPVVMRIMASYAFEDYARSAASKKQCPCCYGEKFIESVVFTNKVQYPDGKPPVWAKCTKGVYPSYWEEWKKVREVVKVACPECGGKGEVSTACKDCRGRGVAIHREESVKRGMPVIRDCQRCGGRGYERLPSTEVFNAICEVTNQITRASWEKTVKKFYDALVTRFDIEEAWAERQLKKVTR
MDKDLQSIQEVRDLLAAASKAFEEYSQFSQSQIDEIVKEICEEAQKHEVELAKLANEETGFGRWEDKVLKNRLASVGVYETIKDLKTRGIINDDKEKRITEIGVPMGIIAALIPSTNPTSTTIYKIMISLKAGNAVIVSPHPNAKDSILKTAEYLIRAAERKGAPKGLIGVIKTPTLQATQELMKHKKTSLILATGGEAMVKAAYSSGTPAIGVGPGNGPSFIERSADIRKAVKRIIDSKTFDNGVICASEQSIVTEEVIKHQVADELKRQGAYFLNKDEREKVGKILMRANNTMNPKIVGKTALYVAAMAGITVPVTTKVLISEETEVSHFNPYSREKLCPVLGFYTEETWEKACEKCIEILQNEGIGHTMSMHTNNENIIREFSLKKPVSRLLVNTPAALGGVGATTNLIPAFTLGCGTVGGSATSDNIGPLNLINIRRVAYGTKELEELKNEGVCTCACELNTDTSNSKVSENDIESIIRQVLDGIYKK
MGSDKIHHHHHHAGCEEEASLSARSVVEAGETEREKTELDKWILDTFTRPYGIEVEYRWDKNAVQNGSYIYPPEVANVKSVLNTIKTLWIDLYTAPELGGDKFLLGKNPLKIYMYGGRNVDGNGMELLDNLEATTNEMFLYNVNDFNPQDEDKVFILMRSVHHQFARHLMELFPYDRSKFLSISRNKYIESTKSIAWIFKGETQGRRGFILAGYPNKKGFFTFHSLLSPEKDFAEIISLKLTYGPKDLLQALDRAKTPYNAGSDKDLQKEYDEQALQAYKELVEKQAFVEDYFSKEIKISLNYLQLISMKQVKEFINKK
RRNDDAGMIIPSFGISYDDQYDLIDEIERISKLTDVDEIKKSMDAIDGKKMDFDLGGVVAVGIPNKFLSATVYGKLYTESFVQPNVDTSGADPLTDSYVQGVSIGVAEAGVSLAKYTNFMNQHLSFGITPKLQRIYTYSYATSFKNFDTKDLREHETAETMFNLDAGALWFFGPYRLGISAKNLIGRDVKTKSFQYNTDTIQSYEYSMRPVYTVGAGIVADYFTMSVDYDLNEEKRFSSFDDNTQMIRAGFEIDILRQMALRGGYMKNLARSNDEGTITAGIGLSPLNLIELDISARYTNENAMGASINFLATY
MGSDKIHHHHHHMENKPFIFGVATSGDNFTDREKETERLLLNFQHGVNTVLISPRRWGKTSLVQKACHLAQSDKLKVVYLDIFSCRSDRDFYDAFAAAILKQTSSKLDEWLENTKLFLSRISPKISIGTDPMTDFSISLEMNPQSNDVDEILQLPEKIAQKKGYNIVVCIDEFQQIAEFKDSKTFQKRLRSVWQLQKSVSYCLFGSKKHLMNELFEKKSLPFYKFGDAIYLPKIGTCDWINYICGRFEATGKQISKELAEKICQRVDNHSSYVQQLAWLVWIHTDKVATEQNFEEAYQDIIDQNTPLFEKQTESLTTYQMNFLRAILDGVHSEFTTQEILQKYKLGSSANVSIVKRALVKKELIEIEKRKVIIPDPVMKVWLKKELGGV
MGHHHHHHSHMSEDNRPLTGLAAAIAGAKLRKVSRMEDTSFPSGGNAIGVNSASSKTDTGRGNGPLPLGGSGLMEEMSALLARRRRIAEKGSTIETEQKEDKGEDSEPVTSKASSTSTPEPTRKPWERTNTMNGSKSPVISRPKSTPLSQPSANGVQTEGLDYDRLKQDILDEMRKELTKLKEELIDAIRQELSKSNTA
MGSDKIHHHHHHMKTQFPSVWQDKLSQKHFSAFTTIQEAAFDPIKNGKSLLGISPTGSGKTLAYLWPSLLTLTPKKAQQLLILAPNTELAGQIFEVAKEWAQPLNLTAQLFLSGSSQKRQIERLKKGPEIIIGTPGRVFDLVKLKKIKMMNVNTIVLDEFDDLLGKSQIHFVKNIVKRVPRDHQMIYMSATNSIDRTFLADDTLEIDLSKQTVDTISHYYITVAKRERGELLRKFSNIPNFRGLVFFNRLSDLGANEERLQFSGASAVSLASDVNIKFRKVILEKFKNHELSLLLATDLVARGIDIELLETVINFDLPRDKDAYNHRAGRTGRMGKNGIVVTFISHPEELKKLKKFAHVSEVYLKNQILHKK
PDLYNHAIVIGYGRVGSMLAQLLQSRHVPLLVIDDNSEHVLKAHAAGIPAIRGSAAADLVLAEAHPERAKIAVLAIPQPLEAGEILAKLRALNPELTLVARAQNDAEVKHLLGHGADATVVAEHEMAHSLAEMVLSSTNH

Soluble on expression in E. coli, soluble:
MKTYDPATAVKTTGEFNGKKRFAVLLMGTDTGALNRTEKRGRTDTMILAVVNPAKKRYTLVSIPRDTMAQMVGSSSFTTEKINAAYEIGGARMSMDSVSALINVPIKYYAVVNMGGIMKMIRYVGGINIRPTLSFEYGGYVFKKGKLTHMGGAGALAYSRMRYDDPRGDYGRQERQRQVITTLIKKAVSVSSLTNLDSILTSVSSNVRTNLPFSALQQIALNYRGCANSSSSDYLHGYNAMIDDAAYQVQPTEELQRISDLVRTELGLEHHHHHH
GPLGSMPYSDAKAMLDEVAKIRELGVQRVTRIENLENAKKLWDNANSMLEKGNISGYLKAANELHKFMKEKNLKEDDLRPELSDKTISPKGYAILQSLWGAASDYSRAAATLTESTVEPGLVSAVNKMSAFFMDCKLSPNERATPDPDFKVGKSKILVGIMQFIKDVADPTSKIWMHNTKALMNHKIAAIQKLERSNNVNDETLESVLSSKGENLSEYLSYKYATKDEGREHRYTASTENFKNVKEKYQQMRGDALKTEILADFKDKLAEATDEQSLKQIVAELKSKDEYRILAKGQGLTTQLLGLKTSSVSSFEKMVEETRESIKSQERQTIKIK
GQSRERLVKWLQDAYAMEKEAETMMAAMASRIEHYPELKRRIEQHVEETQQQSAGVQRCLELLNGSIPTAKGMLSSVLASMHAAGNSMMTDEVTKGVGISYAFEHLEIASYRALVVAARSAGEQEVAQICEDILQQEIEMAEWLIEHQEAIVVAFLEREQLEGVGS
MEMTSAFTLNVRLDNIAVITIDVPGEKMNTLKAEFASQVRAIIKQLRENKELRGVVFVSAKPDNFIAGADINMIGNCKTAQEAEALARQGQQLMAEIHALPIQVIAAIHGACLGGGLELALACHGRVCTDDPKTVLGLPEVQLGLLPGSGGTQRLPRLIGVSTALEMILTGKQLRAKQALKLGLVDDVVPHSILLEAAVELAKKERPSSRPLPVRERILAGPLGRALLFKMVGKKTEHKTQGNYPATERILEVVETGLAQGTSSGYDAEARAFGELAMTPQSQALRSIFFASTDVKKDPGSDAPPAPLNSVGILGGGLMGGGIAYVTACKAGIPVRIKDINPQGINHALKYSWDQLEGKVRRRHLKASERDKQLALISGTTDYRGFAHRDLIIEAVFENLELKQQMVAEVEQNCAAHTIFASNTSSLPIGDIAAHATRPEQVIGLHFFSPVEKMPLVEIIPHAGTSAQTIATTVKLAKKQGKTPIVVRDKAGFYVNRILAPYINEAIRMLTQGERVEHIDAALVKFGFPVGPIQLLDEVGIDTGTKIIPVLEAAYGERFSAPANVVSSILNDDRKGRKNGRGFYLYGQKGRKSKKQVDPAIYPLIGTQGQGRISAPQVAERCVMLMLNEAVRCVDEQVIRSVRDGDIGAVFGIGFPPFLGGPFRYIDSLGAGEVVAIMQRLATQYGSRFTPCERLVEMGARGESFWKTTATDLQ
ELNNLRMTYERLRELSLNLGNRMVPPVGNFMPDSILKKMAAILPMNDSAFATLGTVEDKYRRRFKYFKATIADLSKKRSSE
MDIKVVKGSITEVDADVIVNPANSRGLMGGGVAVVIKRLGGEEIEREAVEKAPIPVGSAVLTTAGKLKFKGVIHAPTMEEPAMPSSEEKVRKATRAALELADKECFKIVAIPGMGTGVGGVPKEVAARAMVEEIRKFEPKCLEKVILVDIDEEMVEAWEKVLGLRLEHHHHHH
MAHHHHHHMSTYVPKPSRDNVYRFFFTEGVIACKKDRMGTWTGTLGGNTFTVPCIQVMQLMRSLKSRNLIKEQYAWRHYYWTLNDEGIAYMRSYLHLAPSAMPNTQKPSSVNFEKVTEGRGRGRGRGGRGRGEGRGRGRGEGRGRGRGRGFGGERMNYRAAAATSDGEAAPAPAAE
MSEPLLIARTPDTELFLLPGMANRHGLITGATGTGKTVTLQKLAESLSEIGVPVFMADVKGDLTGVAQAGTVSEKLLARLKNIGVNDWQPHANPVVVWDIFGEKGHPVRATVSDLGPLLLARLLNLNDVQSGVLNIIFRIADDQGLLLLDFKDLRAITQYIGDNAKSFQNQYGNISSASVGAIQRGLLSLEQQGAAHFFGEPMLDIKDWMRTDANGKGVINILSAEKLYQMPKLYAASLLWMLSELYEQLPEAGDLEKPKLVFFFDEAHLLFNDAPQVLLDKIEQVIRLIRSKGVGVWFVSQNPSDIPDNVLGQLGNRVQHALRAFTPKDQKAVKAAAQTMRANPAFDTEKAIQELGTGEALISFLDAKGSPSVVERAMVIAPCSRMGPVTEDERNGLINHSPVYGKYEDEVDRESAYEMLQKGFQASTEQQNNPPAKGKEVAVDDGILGGLKDILFGTTGPRGGKKDGVVQTMAKSAARQVTNQIVRGMLGSLLGGRRR
MVKQIESKTAFQEALDAAGDKLVVVDFSATWCGPCKMIKPFFHSLSEKYSNVIFLEVDVDDAQDVAPKYGIRGIPTLLLFKNGEVAATKVGALSKGQLKEFLDANLV
MSLKRVLLLGGAGFIGYHLGRHLVERSDCRVTLVDNFFRSKQDEELDTLLQSSAVDIVEGDLTERSTFDQLDDEYDHVYALAAVVGVGYTEDMPEEVWRINTAITLNTFEWLRESSVSRVLFASTSETYAGTVEEFGAEIPTPEDVPLSITDITQPRFTYAVTKMLGEAGIAHYAQAYDFEQVTVRFHNVYGPRMGFKHVIPQVVERFHEAEDPFTVYGYDQTRAFCHVDDAVRGVVQAMETPEAAGRTYHIGDDRHEITIETLIRYIGDLMDFHGEYEQGPSHAGSVSRRCPDVDRAREVFGYEPQVHWKEGVRETVEWYADYYRSGREVFEEGHHHHHH
